# Test results from publication PMC4333395.
# Where a chain is given by its changes, count along the chain named.
# What was measured:
# [1] = test system: T1, hADAR2-D (human ADAR2 deaminase domain) (human), P78563-2; experiment: EMSA; conditions: EMSA: 20 mM Tris-HCl pH 7-7.1, 6% glycerol, 0.5 mM DTT, 60 mM KCl, 20 mM NaCl, 0.1 mM 2-mercaptoethanol, 1.5 mM EDTA, 0.003% NP-40, 160 U/ml RNasin, 100 ug/ml …
# T1 sequence: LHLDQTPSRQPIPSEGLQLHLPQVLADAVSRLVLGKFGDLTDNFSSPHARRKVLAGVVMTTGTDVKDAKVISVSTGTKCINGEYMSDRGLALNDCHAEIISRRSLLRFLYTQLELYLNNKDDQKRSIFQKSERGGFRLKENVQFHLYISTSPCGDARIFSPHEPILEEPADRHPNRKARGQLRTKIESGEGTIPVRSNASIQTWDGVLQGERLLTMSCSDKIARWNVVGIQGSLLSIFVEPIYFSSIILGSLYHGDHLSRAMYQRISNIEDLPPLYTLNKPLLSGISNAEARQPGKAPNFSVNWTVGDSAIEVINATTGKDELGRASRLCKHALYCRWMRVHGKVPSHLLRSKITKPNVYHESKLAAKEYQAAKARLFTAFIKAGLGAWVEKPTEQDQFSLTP
# [2] = test system: T2, hADAR2-D E488Q E488Q (human), P78563-2; experiment: EMSA; conditions: N12 of top = 8-azanebularine; EMSA: 20 mM Tris-HCl pH 7-7.1, 6% glycerol, 0.5 mM DTT, 60 mM KCl, 20 mM NaCl, 0.1 mM 2-mercaptoethanol, 1.5 mM EDTA, 0.003% NP-40, 160 U/ml RNasin, 100 ug/ml …
# T2 sequence: T1 sequence with E190Q
sequence,measurement,setting,value
CAUUANGGUGGGUGGAAUAGUAUAACA / UGUUAUAGUAUCCCACCUACCCUGAUG [(e) GluR B R/G 8-azaN],Kd,[1]; N6 of top = 8-azanebularine,> 3.2 µM
CCCCACAUUNGACGUUCAGUUAGUACCACCAAUGUGGGG [(c) 8-azaN],Kd,[1]; N10 = 8-azanebularine,0.31 µM
UUCCCCACAUUNGACGUUCAGU / ACTGAACCACCAAUGUGGGGAA [(g) 8-azaN],Kd,"[1]; N12 of top = 8-azanebularine, bottom nt 1-7 2'-deoxy",0.099 µM
UUCCCCACAUUNGACGUUCAGU / ACUGAACCACCAATGUGGGGAA [(h) 8-azaN],Kd,"[1]; N12 of top = 8-azanebularine, bottom nt 8-15 2'-deoxy",0.342 µM
UUCCCCACAUUNGACGUUCAGU / ACUGAACCACCAAUGTGGGGAA [(f) 8-azaN],Kd,"[1]; N12 of top = 8-azanebularine, bottom nt 16-22 2'-deoxy",0.114 µM
UUCCCCACAUUNGACGUUCAGU / ACUGAACCACCAAUGUGGGGAA [(d) 8-azaN],Kd,[1]; N12 of top = 8-azanebularine,0.03 µM
UUCCCCACAUUNGACGUUCAGU / ACUGAACGACCAAUGUGGGGAA [(i) 8-azaN],Kd,[1]; N12 of top = 8-azanebularine,0.015 µM
same,Kd,[2],< 0.005 µM
UUCCCCACAUUNGACGUUCAGU / ACUGAACGUCCAAUGUGGGGAA [(j) 8-azaN],Kd,[1]; N12 of top = 8-azanebularine,0.01 µM
UUCCCCACAUUNGACGUUCAGUUAGUACCACCAAUGUGGGGAA [(b) 8-azaN],Kd,[1]; N12 = 8-azanebularine,0.027 µM
